This experiment concerns the target C5b6 (UniProt P13671). The experiment is described as follows: BLI; as a1, but 100nM C7 pre-incubated with anti-C7 mAb TPP1653 (200nM or 2nM) before dipping the C5b6 sensors, then C8 and C9.

The values below come from paper PMC9486540.

In the case of “human complement C7 (from UniProt P10643 23-843) (natural protein)”, the binding response, percent of max response in controls (with 200nM TPP1653) (% of max response in controls) is 60.
